According to patent US20050100554A1 (published 2005):

T1: EphB1 (human, UniProt P54762 18-984)
T1 construct: also called cbe_3810791
T1 sequence: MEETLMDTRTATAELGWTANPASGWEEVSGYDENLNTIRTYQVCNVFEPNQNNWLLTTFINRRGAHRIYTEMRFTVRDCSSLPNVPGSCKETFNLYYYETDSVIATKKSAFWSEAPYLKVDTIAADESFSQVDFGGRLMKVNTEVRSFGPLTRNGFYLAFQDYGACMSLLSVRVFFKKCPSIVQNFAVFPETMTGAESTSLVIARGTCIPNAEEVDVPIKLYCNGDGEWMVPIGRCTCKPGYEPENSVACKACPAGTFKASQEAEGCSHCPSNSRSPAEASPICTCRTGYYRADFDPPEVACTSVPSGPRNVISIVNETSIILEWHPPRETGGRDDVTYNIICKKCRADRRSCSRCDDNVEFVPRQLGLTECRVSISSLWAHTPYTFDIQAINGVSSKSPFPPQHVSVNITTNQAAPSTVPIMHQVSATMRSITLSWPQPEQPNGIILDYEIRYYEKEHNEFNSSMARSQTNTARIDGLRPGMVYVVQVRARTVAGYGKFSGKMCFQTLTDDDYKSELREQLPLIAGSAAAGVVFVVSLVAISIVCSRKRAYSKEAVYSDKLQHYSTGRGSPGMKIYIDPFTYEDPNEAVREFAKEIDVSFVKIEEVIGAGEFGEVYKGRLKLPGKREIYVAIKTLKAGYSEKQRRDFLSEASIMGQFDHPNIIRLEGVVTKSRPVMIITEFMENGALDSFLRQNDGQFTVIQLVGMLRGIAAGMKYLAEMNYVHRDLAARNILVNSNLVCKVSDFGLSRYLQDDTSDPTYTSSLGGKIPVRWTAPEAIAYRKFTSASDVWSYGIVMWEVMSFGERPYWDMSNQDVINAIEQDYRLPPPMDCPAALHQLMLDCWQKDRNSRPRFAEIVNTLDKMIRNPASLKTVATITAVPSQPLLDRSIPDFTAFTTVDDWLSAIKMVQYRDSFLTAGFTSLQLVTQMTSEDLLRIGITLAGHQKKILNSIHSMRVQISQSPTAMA

T2: pumilio homolog 1 (Drosophila) (human, UniProt Q14671 2-1186)
T2 construct: also called PUM1; cbe_4540466
T2 sequence: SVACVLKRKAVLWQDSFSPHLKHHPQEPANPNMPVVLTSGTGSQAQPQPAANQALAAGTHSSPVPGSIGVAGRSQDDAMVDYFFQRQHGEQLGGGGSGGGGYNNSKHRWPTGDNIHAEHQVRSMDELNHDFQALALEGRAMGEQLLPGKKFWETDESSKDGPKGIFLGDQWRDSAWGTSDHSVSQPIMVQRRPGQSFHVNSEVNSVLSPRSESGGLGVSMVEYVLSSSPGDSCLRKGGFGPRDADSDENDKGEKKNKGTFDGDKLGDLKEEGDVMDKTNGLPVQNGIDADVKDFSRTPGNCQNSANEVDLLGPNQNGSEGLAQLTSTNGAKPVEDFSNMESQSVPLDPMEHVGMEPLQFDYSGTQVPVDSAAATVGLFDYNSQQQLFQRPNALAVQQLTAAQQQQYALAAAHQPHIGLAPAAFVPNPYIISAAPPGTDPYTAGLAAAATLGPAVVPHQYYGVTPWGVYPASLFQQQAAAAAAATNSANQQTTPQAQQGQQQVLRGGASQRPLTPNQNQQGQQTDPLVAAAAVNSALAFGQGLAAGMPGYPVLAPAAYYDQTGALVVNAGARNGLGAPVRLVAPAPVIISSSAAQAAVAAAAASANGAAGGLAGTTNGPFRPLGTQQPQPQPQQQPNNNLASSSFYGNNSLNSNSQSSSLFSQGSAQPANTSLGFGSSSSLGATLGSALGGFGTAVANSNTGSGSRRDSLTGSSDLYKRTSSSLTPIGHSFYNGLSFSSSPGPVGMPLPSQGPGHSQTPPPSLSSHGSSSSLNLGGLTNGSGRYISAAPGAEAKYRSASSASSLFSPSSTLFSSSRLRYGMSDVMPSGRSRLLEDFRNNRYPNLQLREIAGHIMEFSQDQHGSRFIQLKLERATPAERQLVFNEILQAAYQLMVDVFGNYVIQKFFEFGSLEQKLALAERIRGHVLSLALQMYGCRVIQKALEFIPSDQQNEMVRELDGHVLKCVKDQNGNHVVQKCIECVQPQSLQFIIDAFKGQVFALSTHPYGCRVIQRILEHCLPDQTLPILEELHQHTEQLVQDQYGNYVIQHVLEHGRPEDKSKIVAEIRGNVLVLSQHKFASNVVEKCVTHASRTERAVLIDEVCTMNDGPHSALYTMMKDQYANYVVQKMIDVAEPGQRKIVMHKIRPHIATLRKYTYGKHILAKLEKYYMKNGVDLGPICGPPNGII

B1: Human Papillomavirus 1a E1 (other)
chain: MADNKGTENDWFLVEATDCEETLEETSLGDLDNVSCVSDLSDLLDEAPQSQGNSLELFHKQESLESEQELNALKRKLLYSPQARSADETDIASISPRLETISITKQDKKRYRRQLFSQDDSGLELSLLQDETENIDESTQVDQQQKEHTGEVGAAGVNILKASNIRAALLSRFKDTAGVSFTDLTRSYKSNKTCCGDWVLAVWGVRENLIDSVKELLQTHCVYIQLEHAVTEKNRFLFLLVRFKAQKSRETVIKLITTILPVDASYILSEPPKSRSVAAALFWYKRSMSSTVFTWGTTLEWIAQQTLINHQLDSESPFELCKMVQWAYDNGHTEECKIAYYYAVLADEDENARAFLSSNSQAKYVKDCAQMVRHYLRAEMAQMSMSEWIFRKLDNVEGSGNWKEIVRFLRFQEVEFISFMIAFKDLLCGKPKKNCLLIFGPPNTGKSMFCTSLLKLLGGKVISYCNSKSQFWLQPLADAKIGLLDDATKPCWDYMDIYMRNALDGNTICIDLKHRAPQQIKCPPLLITSNIDVKSDTCWMYLHSRISAFKFAHEFPFKDNGDPGFSLTDENWKSFFERFWQQLELSDQEDEGNDGKPQQSLRLTARAANEPI
notes: also called HPV 1a E1; cbe_552975
B2: Human Papillomavirus 1a L2 (other)
chain: MYRLRRKRAAPKDIYPSCKISNTCPPDIQNKIEHTTIADKILQYGSLGVFLGGLGIGTARGSGGRIGYTPLGEGGGVRVATRPTPVRPTIPVETVGPSEIFPIDVVDPTGPAVIPLQDLGRDFPIPTVQVIAEIHPISDIPNIVASSTNEGESAILDVLRGNATIRTVSRTQYNNPSFTVASTSNISAGEASTSDIVFVSNGSGDRVVGEDIPLVELNLGLETDTSSVVQETAFSSSTPIAERPSFRPSRFYNRRLYEQVQVQDPRFVEQPQSMVTFDNPAFEPELDEVSIIFQRDLDALAQTPVPEFRDVVYLSKPTFSREPGGRLRVSRLGKSSTIRTRLGTAIGARTHFFYDLSSIAPEDSIELLPLGEHSQTTVISSNLGDTAFIQGETAEDDLEVISLETPQLYSEEELLDTNESVGENLQLTITNSEGEVSILDLTQSRVRPPFGTEDTSLHVYYPNSSKGTPIINPEESFTPLVIIALNNSTGDFELHPSLRKRRKRAYV
notes: also called HPV 1a L2; cbe_252041
B3: TRAF interacting protein (other)
chain: MPIRALCTICSDFFDHSRDVAAIHCGHTFHLQCLIQSFETAPSRTCPQCRIQVGKRTIINKLFFDLAQEEENVLDREFLKNELDNVRAQLSQKDKEKRDSQVIIDTLRDTLEERNATVVSLQQALGKAEMLCSTLKKQMKYLEQQQDETKQAQEEAGRLRSKMKTMEQIELLLQSQLPEVEEMIRDMGVGQSAVEQLAVYCVSLKKEYENLKEARKASGEVADKLRKDLFSSRSKLQTVYSELDQAKLELKSAQKDLQSADKEIMSLKKKLTMLQETLNLPPVASETVDRLVLESPAPVEVNLKLRRPSFRDDIDLNATFDVDTPPARPSSSQHGYYEKLCLEKSHSPIQDVPKKICKGPRKESQLSLGGQSCAGEPDEELVGAFPIFVRNAILGQKQPKRPRSESSCSKDVVRTGFDGLGGRTKFIQPTDTVMIRPLPVKPKTKVKQRVRVKTVPSLFQAKLDTFLWS
notes: also called TRIP; cbe_3340492
B4: interferon regulatory factor 1 (other)
chain: MPITRMRMRPWLEMQINSNQIPGLIWINKEEMIFQIPWKHAAKHGWDINKDACLFRSWAIHTGRYKAGEKEPDPKTWKANFRCAMNSLPDIEEVKDQSRNKGSSAVRVYRMLPPLTKNQRKERKSKSSRDAKSKAKRKSCGDSSPDTFSDGLSSSTLPDDHSSYTVPGYMQDLEVEQALTPALSPCAVSSTLPDWHIPVEVVPDSTSDLYNFQVSPMPSTSEATTDEDEEGKLPEDIMKLLEQSEWQPTNVDGKGYLLNEPGVQPTSVYGDFSCKEEPEIDSPGGDIGLSLQRVFTDLKNMDATWLDSLLTPVRLPSIQAIPCAP
notes: also called IRF1; cbe_3001381
B5: hypothetical protein FLJ13236 (other)
chain: MAKGLLVTYALWAVGGPAGLHHLYLGRDSHALLWMLTLGGGGLGWLWEFWKLPSFVAQANRAQGQRQSPRGVTPPLSPIRFAAQVIVGIYFGLVALISLSSMVNFYIVALPLAVGLGVLLVAAVGNQTSDFKNTLGSAFLTSPIFYGRPIAILPISVAASITAQRHRRYKALVASEPLSVRLYRLGLAYLAFTGPLAYSALCNTAATLSYVAETFGSFLNWFSFFPLLGRLMEFVLLLPYRIWRLLMGETGFNSSCFQEWAKLYEFVHSFQDEKRQLAYQVLGLSEGATNEEIHRSYQELVKVWHPDHNLDQTEEAQRHFLEIQAAYEVLSQPRKPWGSRR
notes: also called cbe_71919
B6: TDE1 (other)
chain: MGAVLGVFSLASWVPCLCSGASCLLCSCCPNSKNSTVTRLIYAFILLLSTVVSYIMQRKEMETYLKKIPGFCEGGFKIHEADINADKDCDVLVGYKAVYRISFAMAIFFFVFSLLMFKVKTSKDLRAAVHNGFWFFKIAALIGIMVGSFYIPGGYFSSVWFVVGMIGAALFILIQLVLLVDFAHSWNESWVNRMEEGNPRLWYAALLSFTSAFYILSIICVGLLYTYYTKPDGCTENKFFISINLILCVVASIISIHPKIQEHQPRSGLLQSSLITLYTMYLTWSAMSNEPDRSCNPNLMSFITRITAPTLAPGNSTAVVPTPTPPSKSGSLLDSDNFIGLFVFVLCLLYSSIRTSTNSQVDKLTLSGSDSVILGDTTTSGASDEEDGQPRRAVDNEKEGVQYSYSLFHLMLCLASLYIMMTLTSWYSPDAKFQSMTSKWPAVWVKISSSWVCLLLYVWTLVAPLVLTSRDFS
notes: also called cbe_3926508

Experiments:
TLK2 = biological target: T3, TLK2 (human, UniProt Q86UE8 1-772, limits assumed); test: Y2H; INT ID 584
T3 construct: Y2H Gal4 fusion; also called cbe_4269167
T3 sequence (Q86UE8 whole entry, the tested form may be a part): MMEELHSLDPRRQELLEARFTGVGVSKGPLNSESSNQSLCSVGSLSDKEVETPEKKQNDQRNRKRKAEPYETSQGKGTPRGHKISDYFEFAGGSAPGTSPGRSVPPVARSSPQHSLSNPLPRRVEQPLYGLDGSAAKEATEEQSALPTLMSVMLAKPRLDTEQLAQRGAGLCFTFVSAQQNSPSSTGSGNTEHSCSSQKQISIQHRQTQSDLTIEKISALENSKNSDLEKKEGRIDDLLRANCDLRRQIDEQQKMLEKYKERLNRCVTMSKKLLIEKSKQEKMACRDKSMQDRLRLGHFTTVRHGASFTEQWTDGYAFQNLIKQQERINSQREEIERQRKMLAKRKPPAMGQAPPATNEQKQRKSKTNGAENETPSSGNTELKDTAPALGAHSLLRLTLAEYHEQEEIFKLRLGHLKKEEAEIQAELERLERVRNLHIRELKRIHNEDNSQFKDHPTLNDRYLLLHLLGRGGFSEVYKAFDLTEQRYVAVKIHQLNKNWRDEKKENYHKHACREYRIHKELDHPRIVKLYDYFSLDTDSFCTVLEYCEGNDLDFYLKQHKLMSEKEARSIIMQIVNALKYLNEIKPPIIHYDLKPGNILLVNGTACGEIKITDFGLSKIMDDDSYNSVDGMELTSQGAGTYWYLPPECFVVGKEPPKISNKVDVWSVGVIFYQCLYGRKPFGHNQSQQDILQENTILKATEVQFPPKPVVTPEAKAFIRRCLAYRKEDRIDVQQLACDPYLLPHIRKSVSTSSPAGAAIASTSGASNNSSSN

NDUFAB1 = biological target: T4, NDUFAB1 (human, UniProt O14561 69-156); test: Y2H; INT ID 587
T4 construct: also called cbe_4269931

EphB1 = biological target: T1, EphB1; test: Y2H; INT ID 448
GSN = biological target: T5, GSN (human, UniProt P06396 28-782); test: Y2H; INT ID 449
T5 construct: also called cbe_4248793
T5 sequence (P06396 28-782 limits assumed): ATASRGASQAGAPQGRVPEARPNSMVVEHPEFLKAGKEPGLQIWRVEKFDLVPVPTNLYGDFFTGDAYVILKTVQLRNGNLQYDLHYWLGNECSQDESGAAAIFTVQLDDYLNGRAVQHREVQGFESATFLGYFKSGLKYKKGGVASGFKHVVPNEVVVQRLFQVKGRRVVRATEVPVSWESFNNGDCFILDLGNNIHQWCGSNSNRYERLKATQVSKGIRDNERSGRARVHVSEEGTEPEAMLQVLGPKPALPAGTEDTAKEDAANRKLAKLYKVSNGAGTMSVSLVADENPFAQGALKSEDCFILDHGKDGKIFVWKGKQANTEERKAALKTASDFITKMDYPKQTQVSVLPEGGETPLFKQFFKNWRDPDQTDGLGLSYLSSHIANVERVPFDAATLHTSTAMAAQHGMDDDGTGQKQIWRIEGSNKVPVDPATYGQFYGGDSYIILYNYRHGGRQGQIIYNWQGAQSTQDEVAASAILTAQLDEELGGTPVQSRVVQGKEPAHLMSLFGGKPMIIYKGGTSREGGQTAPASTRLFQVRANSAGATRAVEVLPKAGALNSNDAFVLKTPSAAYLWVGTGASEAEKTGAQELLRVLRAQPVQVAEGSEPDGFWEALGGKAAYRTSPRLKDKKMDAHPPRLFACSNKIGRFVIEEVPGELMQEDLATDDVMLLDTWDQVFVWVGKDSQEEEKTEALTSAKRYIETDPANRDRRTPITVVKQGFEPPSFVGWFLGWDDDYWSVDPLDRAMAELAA

[1] = biological target: T2, pumilio homolog 1 (Drosophila); test: Y2H; INT ID 452
[2] = biological target: B1; test: Y2H; INT ID 582
[3] = biological target: B1; test: Y2H; INT ID 581
[4] = biological target: B1; test: Y2H; INT ID 579
[5] = biological target: B1; test: Y2H; INT ID 583

B1
binding result (TLK2): binds
binding result (NDUFAB1): binds

B2
binding result (EphB1): binds
binding result (GSN): binds
binding result [1]: binds

B3
binding result [2]: binds

B4
binding result [3]: binds

B5
binding result [4]: binds

B6
binding result [5]: binds
